“Also recorded” adds a separate entry of the source.

For data set [1], the system named is premature lambs. In words: Lung function and morphology in ventilated premature lambs. Type of data set: in vivo, sheep.
Data set [2] in a line: Ultrastructure of surfactant mixtures (electron micrographs). Conditions: SURVANTA mixed with buffer or rhSP-D. Format: physicochemical. On the procedure: (§1) Surface tension was measured by captive bubble surfactometer (Schoel M, et al. The captive bubble method for the evaluation of pulmonary surfactant: surface tension, area, and volume calculations. Biochim Biophys Acta 1994; 1200:281-290) on 3 μL of samples containing 15 μg/μL […]® and 2% rhSP-D or buffer in the presence or absence of surfactant inhibitor (21 μg/μL plasma protein) (Ikegami M, et al. Characteristics of surfactant from SP-A deficient mice. Am J Physiol Lung Cell Mol Physiol 1998; 275:L247-L25). This amount of plasma protein relative to […]® was 30% lower than the concentration that is known to inhibit the activity of […]® in the ventilated premature newborn lamb lung in vivo (Wada K, et al. Tidal volume effects on surfactant treatment responses with the initiation of ventilation in preterm lambs. J Appl Physiol 1997; 83:1054-1061). The influence of rhSP-D on the ultrastructure of […]® was studied as previously described (Schmiedl A, et al. Influence of plasma and inflammatory proteins on the ultrastructure of exogenous surfactant. J Electron Microsc (Tokyo) 2004; 53:407-416).

Data set [3] relates to premature lambs. In words: Pulmonary inflammation in ventilated premature lambs (BALF cells, NE activity, cytokine mRNA and protein, flow cytometry). Format: in vivo, sheep. The method, then: A five hour study period was chosen to detect changes in proinflammatory cytokine mRNAs induced by initial ventilation (Naik A S, et al. Effects of ventilation with different positive end-expiratory pressures on cytokine expression in the preterm lamb lung. Am J Respir Crit Care Med 2001; 164:494-498). After five hours, lambs were ventilated with FiO2=1 for five minutes, then given 100 mg pentobarbital intravascularly, after which the endotracheal tube was clamped to permit oxygen absorption atelectasis (Ikegami M, et al. Intratracheal recombinant surfactant protein D prevents endotoxin shock in the newborn preterm lamb. Am J Respir Crit Care Med 2006; 173:1342-1347; Ikegami M, Jobe A. Postnatal lung inflammation increased by ventilation of preterm lambs exposed antenatally to E. coli endotoxin. Pediatr Res 2002; 52:356-362). After the thorax was opened, the deflation limb of pressure-volume curve was measured (Kramer B W, et al. Surfactant protein A recruits neutrophils into the lungs of ventilated preterm lambs. Am J Respir Crit Care Med 2001; 163:158-165; Ikegami M, et al. Intratracheal recombinant surfactant protein D prevents endotoxin shock in the newborn preterm lamb. Am J Respir Crit Care Med 2006; 173:1342-1347). Lung tissue of the right lower lobe was frozen in liquid nitrogen for RNA isolation and measurement of neutrophil elastase (NE) activity (Lowry O H, et al. Protein measurement with the Folin phenol reagent. J Biol Chem 1951; 193:265-275; Watterberg K L, et al. Secretory leukocyte protease inhibitor and lung inflammation in developing bronchopulmonary dysplasia. J Pediatr 1994; 125:264-269). NE is a potent serine proteinase, responsible for tissue destruction in the adult lung with emphysema (Shapiro S D, et al. Neutrophil elastase contributes to cigarette smoke-induced emphysema in mice. Am J Pathol 2003; 163:2329-2335). In the preterm newborn lung, increased NE activity affects lung remodeling and increases alveolar epithelial apoptosis and the development of BPD (Watterberg K L, et al. Secretory leukocyte protease inhibitor and lung inflammation in developing bronchopulmonary dysplasia. J Pediatr 1994; 125:264-269; Yasumatsu R, et al. SERPINB1 upregulation is associated with in vivo complex formation with neutrophil elastase and cathepsin G in a baboon model of bronchopulmonary dysplasia. Am J Physiol Lung Cell Mol Physiol 2006; 291:L619-L627). NE activity was assessed by a spectrophotometric assay using a chromogenic substrate specific for NE, N-methoxy-succinyl-Ala-Ala-Pro-Val pNA (Yasumatsu R, et al. SERPINB1 upregulation is associated with in vivo complex formation with neutrophil elastase and cathepsin G in a baboon model of bronchopulmonary dysplasia. Am J Physiol Lung Cell Mol Physiol 2006; 291:L619-L627).
; Lung tissue of the right middle lobe was homogenized in 0.9% NaCl and supernatant after centrifugation at 1,000×g for 15 minutes and frozen for ELISA of proinflammatory cytokine proteins (Kramer B W, et al. Surfactant protein A recruits neutrophils into the lungs of ventilated preterm lambs. Am J Respir Crit Care Med 2001; 163:158-165; Ikegami M, et al. Intratracheal recombinant surfactant protein D prevents endotoxin shock in the newborn preterm lamb. Am J Respir Crit Care Med 2006; 173:1342-1347). BALF was recovered from the left lung (Ikegami M, et al. Whitsett J A. Intratracheal recombinant surfactant protein D prevents endotoxin shock in the newborn preterm lamb. Am J Respir Crit Care Med 2006; 173:1342-1347) for further analyses. Total proteins were analyzed (Lowry O H, et al. Protein measurement with the Folin phenol reagent. J Biol Chem 1951; 193:265-275) in the supernatant of BALF after 10 minutes of centrifugation at 284×g. The right upper lobe was inflation-fixed at 30 cm H2O for morphology (Ikegami M, et al. Surfactant protein-D regulates the postnatal maturation of pulmonary surfactant lipid pool sizes. J Appl Physiol 2009; 106:1545-1552). […]
On the technique in general: In flow cytometry, cells or beads pass a laser one at a time.

Data set [4] in a line: Surface tension by captive bubble surfactometer. Format: physicochemical. Conditions: 15 μg/μL SURVANTA with 2% rhSP-D or buffer. The method, then: as §1
Setting [5] is: CD45-positive cells from BALF, flow cytometry.
The mark [6] stands for this setting: premature lambs, five hours of ventilation, +rhSP-D vs control.
The mark [7] stands for this setting: premature lambs, mean levels decreased by rhSP-D.

B1: rhSP-D: recombinant human surfactant protein D, given mixed with SURVANTA to premature lambs (protein, UniProt P35247 21-375, looked up)
Pulmonary …: AEMKTYSHRTMPSACTLVMCSSVESGLPGRDGRDGREGPRGEKGDPGLPGAAGQAGMPGQAGPVGPKGDNGSVGEPGPKGDTGPSGPPGPPGVPGPAGREGPLGKQGNIGPQGKPGPKGEAGPKGEVGAPGMQGSAGARGLAGPKGERGVPGERGVPGNTGAAGSAGAMGPQGSPGARGPPGLKGDKGIPGDKGAKGESGLPDVASLRQQVEALQGQVQHLQAAFSQYKKVELFPNGQSVGEKIFKTAGFVKPFTEAQLLCTQAGGQLASPRSAAENAALQQLVVAKNEAAFLSMTDSKTEGKFTYPTGESLVYSNWAPGEPNDDGGSEDCVEIFTNGKWNDRACGEKRLVVCEF
B1: in the data set on premature lambs [1] (premature lambs after surfactant at 20 minutes of age, same for controls), the “mean PIP required to regulate VT at 8 to 9 ml/kg” value was 27 cm H2O. In the data set with premature lambs [1] (premature lambs, 7 mg rhSP-D mixed with SURVANTA 100 mg/kg vs SURVANTA+buffer control, P<0.01), the Po2/Fio2 entry was “higher”. The alveolar fluid result with premature lambs [1] (premature lambs, +rhSP-D vs control) is “More fluid was noted in alveoli of the control lambs; also recorded: More alveolar fluid was observed in control lambs”. Further, the “modified ventilation index (MVI)” value in the data set on premature lambs [1] (premature lambs, +rhSP-D vs control, after 240 minutes, not statistically significant) is on record as “tends to be better (lower)”. Moreover, the “deflation limb of pressure-volume curves” value in the data set on premature lambs [1] (premature lambs, +rhSP-D vs control, after five hours) is listed as “not different”. Also, the ultrastructure of surfactant entry in data set [2] was “causing the formation of lipid aggregates and multilayers; also recorded: from simple lipid layers to the mixture of multiple lipid layers and lipid aggregates”. Besides, in the data set with premature lambs [3] (setting [5]), the “expression of CD11b” value is reported as “did not influence expression” and the “expression of CD44” value was “did not influence expression”. Also, the “proteins in BALF” value in the data set on premature lambs [3] (premature lambs, +rhSP-D group, control group 60±7) worked out at 57 ± 11 mg/kg. In the data set on premature lambs [3] (premature lambs, five hours of ventilation), the lung inflammation result is recorded as “decreased in all the lambs treated with rhSP-D”. In the data set on premature lambs [3] (setting [6]), the “neutrophils in BALF” value is listed as “significantly decreased; also recorded: suppressed” and the “total inflammatory cell numbers in BALF” value is given as “significantly decreased; also recorded: suppressed”. Also, in the data set on premature lambs [3] (premature lambs, ELISA), the “IL-1β protein in the lung” value is reported as “not significantly influenced”. For the same molecule, the “IL-8 protein in lung homogenates” value with premature lambs [3] (premature lambs, ELISA, +rhSP-D vs control) is on record as “significantly decreased”. For the same molecule, the “IL-1β mRNA in the lung” value with premature lambs [3] (premature lambs, RT-PCR) was “not significantly influenced; also recorded: generally lower”. Moreover, in the data set on premature lambs [3] (premature lambs, RT-PCR, +rhSP-D vs control), the “IL-8 mRNA in the lung” value is given as “significantly decreased; also recorded: significantly suppressed”. In addition, in the data set on premature lambs [3] (premature lambs, data not shown), the “TNF-α mRNA expression” value was “similarly present at low levels in both groups”. In addition, in the data set with premature lambs [3] (setting [7]), the “KC mRNA in the lung” value is “not significantly different; also recorded: generally lower” and the “MCP1 mRNA in the lung” value is “not significantly different; also recorded: generally lower”. Moreover, the “IL-6 mRNA expression in the lung” value in the data set with premature lambs [3] (premature lambs, mean, P=0.06, not statistically significant) was “generally lower”. Moreover, in the data set on premature lambs [3] (premature lambs, mean, P=0.1, not statistically significant), the “IL-6 protein in the lung” value is listed as “lower”. Also, the “neutrophil elastase (NE) activity in the lung” value in the data set on premature lambs [3] (premature lambs, rhSP-D added to SURVANTA vs control, P<0.05) is “decreased NE activity”. In addition, the minimum surface tension result in data set [4] (absence of plasma protein) is given as “low”. For the same molecule, the minimum surface tension result in data set [4] (presence of surfactant inhibitor (21 μg/μL plasma protein)) is reported as “remaining low; also recorded: low minimum surface tension in the presence of plasma protein”.

(Values after patent US9370555B2, “Surfactant protein D for the treatment of disorders associated with lung injury” (priority 1998, dated 2016).)
